Measured values as given in the RNAGym collection of RNA variant scans (doi:10.1073/pnas.2313332121).

B1: TPR t1 (parent)
chain: GACCAAUCUGCCCUCAGAGCUCGAGAACAUCUUCGGAUGCAGAGGAGGCAGGCUUCGGUGGCGCGAUAGCGCCAACGUCCUCAACCUCCAAUGCAUCCCACCACAUGAUGAUGCCUGAAGAGCCUUGGUUUUUUG

Variants of: B1
Assay: polymerase ribozyme fitness, log enrichment relative to wild type (log ratio); higher = more active; in vitro selection for triplet polymerase activity
How it was run: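 Fitness compares each genotype's enrichment to that of the wild type on a logarithmic scale, averaging replicates with inverse-variance weights. The logarithm is base 2. Enrichment came from Illumina sequencing of input and output libraries after one triplicate round of in vitro selection, which included frozen incubation at −7 °C, of PCR-built, transcribed mutant libraries of each subunit of a heterodimeric triplet polymerase ribozyme. Only genotypes with ≥10 input reads and ≥1 read per output were kept.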

Variant | polymerase ribozyme fitness (log ratio)
G63U A108G | -3.13
G63U A111U | -4.61
G63U A119G | -0.465
G63U A119U | -0.897
G63U C73A A84U C86U A100G A111C | -6.77
G63U C79G | -3.17
G63U C82U G127C | -1.96
G63U C85A G128A | -4.29
G63U C85G G113A | -2.68
G63U C86G A90U C104A G110U | -6.48
G63U C88U | -2.31
G63U C89U A90G U112A C123G | 0.558
G63U C97U | -1.62
G63U C97U C98U G113A A118G U134G | -3.87
G63U C99U | -4.73
G63U C114A G122U | -3.44
G63U C114A U125A | -4.22
G63U C114A U133A | -3.35
G63U C123U | -0.374
G63U G71C G113A | -6.74
G63U G77U | -3.54

Variant | polymerase ribozyme fitness (log ratio)
G63U G93A | -1.31
G63U G120C | 0.0622
G63U G120C G128C | -4.02
G63U G128U | -2.6
G63U G135U | -2.37
G63U U78A | -0.683
G63U U78G U81A A118U U129C | -4.83
G63U U81G C97U U106A G120A U133C | -3.57
G63U U87A | -1.45
G63U U87G | -0.803
G63U U92G G93C C98G A121G | -5.9
G63U U92G G122A | -5.14
G63U U129C | -1.11
G63U U133G | -1.94
C64A A66C C104A | -6.61
C64A C70G A95U G110C C114U | -5.6
C64A C86A U112G | -6.59
C64A C88G G110U | -6.03
C64A C89A G117C G135U | -5.9
C64A G113C A118G | -6.38
C64G A111G | -5.39

Variant | polymerase ribozyme fitness (log ratio)
C64G C70A G93A C101A G120A G127A U131G | -6.32
C64G U78C | -6.9
C64G U81A G120C | -6.58
C64G U81G C101A G113A | -6.96
C64G U112G G120A | -5.95
C64U A66U | -0.148
C64U A74G U78A | -2.93
C64U A83U | 0.866
C64U A95G G117C | -4.22
C64U A111C C115A G127A | -4.2
C64U A118G U129G | -1.07
C64U C72U | -0.106
C64U C73U | 0.562
C64U C73U G117C | -3.17
C64U C79U C85A A105G | -5.05
C64U C80U | 0.0248
C64U C82G C88U U131G | -0.778
C64U C82G C89A U109A | -5.15
C64U C82U | -2.09
C64U C82U U106G | -1.27
C64U C85U | -1.42

Variant | polymerase ribozyme fitness (log ratio)
C64U C88A | -0.544
C64U C88U | -0.605
C64U C88U C97U | -0.745
C64U C88U U106A U130A | -0.803
C64U C89G A91U C97U C115U | -2.63
C64U C89U G117C | -4.79
C64U C97U | -1.3
C64U C101A G110C | -7.07
C64U C101G | -1.69
C64U C104A | -1.31
C64U C104A G120A | -0.809
C64U C104G U109A | -6.28
C64U C123A | -0.0204
C64U C124G | 1.78
C64U G77A G93C C98U G120A C124G | -1.69
C64U G113A | -1.32
C64U G117U | -1.28
C64U U81A | -0.925
C64U U87A U109C | -5.61
C64U U96C U132A | -0.407
C64U U109A | -4.01
